Data on one substance can be found in article PMC7078487.

The target of the assay is soluble FixL (FixL_(118–495), missing the transmembrane domain) (Caulobacter crescentus).

For “Caulobacter crescentus FixT (natural protein)”, the accumulation of autophosphorylated FixL ([γ-32P]ATP, 30-minute time course; FixL 5 μM, FixJ(D55A) 20 μM, FixT 80 μM) stood at 3 fold.
